This data set is described as follows: PRM target quantification of synthetic mAb peptide standards diluted with DDM, FA or cell digest matrix. Format: physicochemical. Particulars: 10 fmol/μl peptide mixture, triplicate; for Ratio of Average Peak Area DDM Diluted/FA Diluted: 0.015% DDM vs 0.1% FA (control); for Ratio of Average Peak Area Matrix Diluted/FA Diluted: complex HeLa cell lysate digest matrix vs 0.1% FA (control). The protocol:
HeLa cell lysate protein digests were diluted to 0.05 ng/μL by 0.1% FA or 0.015% DDM solution, and 0.2 ng (4 μL) was injected onto the LC-MS to simulate single cell sample analysis. Sixteen synthetic peptides from a mAb's constant region and CDR were diluted and mixed to a final concentration of 10 fmol/μL by 0.1% FA, 0.015% DDM solution or complex cell digest matrix. In reconstitution experiments, 20 μL of 500 fmol/μL BSA digests and 200 ng/μL HeLa digests were aliquoted into vials and dried in vacuo. Dried samples were reconstituted by 0.1% FA or 0.015% DDM solution. One picomole BSA digests and 100 ng HeLa digests were loaded onto the column for nanoLC-MS/MS analysis.
PRM target quantification was performed on an Orbitrap Exploris 480 mass spectrometer equipped with an UltiMate 3000 RSLCnano system and 75 μm ID×25 cm C18 column (CoAnn Technologies, 360 μm OD). A short gradient with a flow rate of 0.3 μL/min was set up as follows: 5% B at 0 min, 8% B at 3 min, 40% B at 20 min, and 95% B from 30-35 min. The m/z of the most intense surrogate peptide peak was selected for PRM analysis with 5 minutes windows. MS/MS spectra were acquired using HCD with a normalized collision energy of 30% at a resolution of 30K (m/z 200) and a maximum injection time of 100 ms.
Database searches for protein identification were performed using SEQUEST and Mascot embedded into Proteome Discoverer 2.2 (Thermo Fisher Scientific). The human UniProt target-decoy protein database including common contaminants was used for HeLa sample database searches. Precursor ion mass tolerance was set to 20 ppm and fragment ion mass tolerance was set to 0.02 Da. Trypsin was specified as the digestion enzyme during the database search with one missed cleavage allowed. Methionine oxidation (+16 Da) was selected as a variable modification and cysteine carbamidomethylation was chosen as a fixed modification for the normal (alkylated) digests. False discovery rates (FDRs) were set to 1% for peptide identification and 5% for protein identification. Peptide mapping and BSA sample data were analyzed using Protein Metrics Byonic™ (version 3.11.3) by searching the raw files against the mAb or BSA protein sequence. All peptide quantification was executed using Skyline Daily software (University of Washington, WA) by extracting the MS' peak area of all detected charge states. The three most intense fragment peaks free of interference were selected for PRM target quantification. Empower (Milford, MA) was employed to extract UV chromatogram peak areas. The peptide hydrophobicity was calculated using the Peptide Synthesis and Proteotypic Peptide Analyzing Tool from ThermoFisher Scientific (Waltham, MA). GraphPad Prism 9.0.2 (San Diego, CA) was used for correlation analysis and p-value calculation.
In order to optimize a method for characterizing peptides for PK studies, sixteen peptides from different mAb molecules, including 13 CDR peptides and three constant region peptides, were selected and synthesized. Information for the synthetic peptide standards, including stock concentration, dilution, hydrophobicity index value, and retention time is shown in Table 1. All synthetic peptide standards were diluted and mixed as a single peptide mixture with a final concentration of 10 fmol/μl using either a DDM solution, formic acid solution (control) or complex HeLa cell lysate digest matrix. PRM acquisition was then used to quantify the peak area of these 16 target peptides and compare results between different samples. Detailed PRM setting information is listed in Table 2 including m/z value and charge states of each target peptide. Each sample was analyzed in triplicate, and average peak areas for each peptide from the DDM prepared samples and matrix prepared samples were compared with the control samples.

Where no end group is shown, it is not given here.

For the substance “GLEWVAVISYDGSNK [synthetic mAb CDR peptide standard]”, the “Ratio of Average Peak Area DDM Diluted/FA Diluted” value is listed as 10.3 and the “Ratio of Average Peak Area Matrix Diluted/FA Diluted” value was determined as 4.7.
In the same order, the values of “DNSLTAPYVFGTGTK [synthetic mAb CDR peptide standard]” are 1.4 and 1.1.
In the same order, the values of “DIATYYCQQH [synthetic mAb CDR peptide standard]” are 1.1 and 1.4.
In the same order, the values of “VTISCTGSSSNIGTHY [synthetic mAb CDR peptide standard]” are 1.1 and 1.4.
Take “TNYLKPTHQTNTIIDVVLSPSH [synthetic mAb constant region peptide standard]”: the “Ratio of Average Peak Area DDM Diluted/FA Diluted” value came out at 18.4 and the “Ratio of Average Peak Area Matrix Diluted/FA Diluted” value turned out to be 32.1.
In the same order, the values of “DWNQNNWF [synthetic mAb CDR peptide standard]” are 2.4 and 3.0.
On to “LSCAASGFTFSNYAMYWVR [synthetic mAb CDR peptide standard]”, for which the “Ratio of Average Peak Area DDM Diluted/FA Diluted” value is given as 29.4 and the “Ratio of Average Peak Area Matrix Diluted/FA Diluted” value came out at 9.2.
Consider “LLIYDASNLK [synthetic mAb CDR peptide standard]”, for which the “Ratio of Average Peak Area DDM Diluted/FA Diluted” value was 1.2 and the “Ratio of Average Peak Area Matrix Diluted/FA Diluted” value worked out at 1.4.
“LSCAASGITFSNAWMSWVR [synthetic mAb CDR peptide standard]”: the “Ratio of Average Peak Area DDM Diluted/FA Diluted” value is recorded as 37.9 and the “Ratio of Average Peak Area Matrix Diluted/FA Diluted” value is listed as 16.9.
In the same order, the values of “DTAVYYCASGS [synthetic mAb CDR peptide standard]” are 0.9 and 0.6.
Take “LLIYAASNLETGVPSR (also: Arg16 stable isotope labeled, +10 Da) [synthetic mAb CDR peptide standard]”: the “Ratio of Average Peak Area DDM Diluted/FA Diluted” value was 5.5 and the “Ratio of Average Peak Area Matrix Diluted/FA Diluted” value stood at 2.7.
In the same order, the values of “LMIYDVSK [synthetic mAb CDR peptide standard]” are 1.1 and 1.3.
In the same order, the values of “TNYLTHR [synthetic mAb CDR peptide standard]” are 1.7 and 0.4.
“NQVSLTCLVK [synthetic mAb constant region peptide standard]”: the “Ratio of Average Peak Area DDM Diluted/FA Diluted” value stood at 0.7 and the “Ratio of Average Peak Area Matrix Diluted/FA Diluted” value is 1.1.
In the same order, the values of “VVSVLTVLHQDWLNGK [synthetic mAb constant region peptide standard]” are 12.1 and 33.2.

Values taken from patent publication US12699101B2, “Maximizing hydrophobic peptide recovery using a mass spectrometry compatible surfactant” (Regeneron Pharmaceuticals, Inc., priority 2022, dated 2026).
